Bridges are numbered along the chain shown (N, C = ends). Where no end group is shown, it is not given here. [ ]: non-standard residue; d: D form. R8 = C=CCCCCCC[C@@](C)(N)C(=O)O; Cba = N[C@@H](CC1CCC1)C(=O)O; S5 = C=CCCC[C@](C)(N)C(=O)O
Target: T1, recombinant HDMX (amino acids 1-490 of SEQ ID NO:104) (Homo sapiens, UniProt O15151)
T1 construct: thioredoxin (N, cleaved yes); S tag (N, cleaved yes); hexahistidine (N, cleaved yes); made in house; host or cells: E. coli (inferred: pET32-LIC vector, handled as described for HDM2 in BL21(DE3))
T1 sequence (O15151 1-490): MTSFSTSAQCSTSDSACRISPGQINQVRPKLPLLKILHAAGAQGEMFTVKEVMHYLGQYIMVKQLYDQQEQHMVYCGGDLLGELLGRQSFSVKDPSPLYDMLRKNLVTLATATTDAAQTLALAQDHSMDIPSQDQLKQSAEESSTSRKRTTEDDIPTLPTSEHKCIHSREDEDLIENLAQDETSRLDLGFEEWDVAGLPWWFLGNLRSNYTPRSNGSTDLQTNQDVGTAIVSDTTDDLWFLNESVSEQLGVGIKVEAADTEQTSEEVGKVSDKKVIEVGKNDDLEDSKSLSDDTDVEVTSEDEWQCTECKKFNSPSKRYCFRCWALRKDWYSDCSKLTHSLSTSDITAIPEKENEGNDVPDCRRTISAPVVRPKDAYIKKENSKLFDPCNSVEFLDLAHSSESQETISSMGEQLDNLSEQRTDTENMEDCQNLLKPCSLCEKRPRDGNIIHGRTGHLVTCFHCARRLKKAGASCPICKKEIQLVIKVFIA
Test: Competitive streptavidin pull-down of biotinylated peptides with 1:1 recombinant HDM2/HDMX mixture, HDMX western
Type: binding
Conditions: biotinylated stapled peptide, 1:1 mixture of recombinant HDM2 and HDMX

| Substance | HDMX versus HDM2 binding selectivity | other results |
| --- | --- | --- |
| LTF8EYWEQBXSAA (LTF[R8]EYWEQ[Cba][S5]SAA-NH2; staple 4-11; not fully specified (N-terminus); printed as LTF8EYWEQBXSAA) [ATSP-7041 A24E] | restored dual HDM2/HDMX binding selectivity | HDMX versus HDM2 binding selectivity (listed as SEQ ID NO:77): dual-selectivity to HDMX and HDM2 |
| SAH-p53-4 D21A: Formula (I) stapled peptide: [Xaa]w LSQETF, [Xaa]x ALWKLL, [Xaa]y EN (LSQETF[R8]ALWKLL[S5]EN-NH2; staple 7-14; not fully specified (N-terminus)) | HDMX selectivity over HDM2 | HDMX versus HDM2 binding selectivity (listed as SEQ ID NO:8): selectivity to HDMX |
| SAH-p53-4 K24A: Formula (I) stapled peptide: [Xaa]w LSQETF, [Xaa]x DLWALL, [Xaa]y EN (LSQETF[R8]DLWALL[S5]EN-NH2; staple 7-14; not fully specified (N-terminus)) | selectivity to HDM2 | – |
| SAH-p53-4 L14A: Formula (I) stapled peptide: [Xaa]w ASQETF, [Xaa]x DLWKLL, [Xaa]y EN (ASQETF[R8]DLWKLL[S5]EN-NH2; staple 7-14; also: biotinylated) | dual selectivity to HDMX and HDM2 | – |
| SAH-p53-4 L14E: Formula (I) stapled peptide: [Xaa]w ESQETF, [Xaa]x DLWKLL, [Xaa]y EN (ESQETF[R8]DLWKLL[S5]EN-NH2; staple 7-14; also: biotinylated) | selectivity to HDM2 | – |
| SAH-p53-4 L22A: Formula (I) stapled peptide: [Xaa]w LSQETF, [Xaa]x DAWKLL, [Xaa]y EN (LSQETF[R8]DAWKLL[S5]EN-NH2; staple 7-14; also: biotinylated) | dual selectivity to HDMX and HDM2 | – |
| SAH-p53-4 L22E: Formula (I) stapled peptide: [Xaa]w LSQETF, [Xaa]x DEWKLL, [Xaa]y EN (LSQETF[R8]DEWKLL[S5]EN-NH2; staple 7-14; also: biotinylated) | dual selectivity to HDMX and HDM2 | – |
| SAH-p53-4 L25A: Formula (I) stapled peptide: [Xaa]w LSQETF, [Xaa]x DLWKAL, [Xaa]y EN (LSQETF[R8]DLWKAL[S5]EN-NH2; staple 7-14; also: biotinylated) | dual selectivity to HDMX and HDM2 | – |
| SAH-p53-4 Q16A: Formula (I) stapled peptide: [Xaa]w LSAETF, [Xaa]x DLWKLL, [Xaa]y EN (LSAETF[R8]DLWKLL[S5]EN-NH2; staple 7-14; not fully specified) | dual selectivity to HDMX and HDM2 | – |
| SAH-p53-4 Q16E: Formula (I) stapled peptide: [Xaa]w LSEETF, [Xaa]x DLWKLL, [Xaa]y EN (LSEETF[R8]DLWKLL[S5]EN-NH2; staple 7-14; not fully specified (N-terminus)) | HDMX selectivity over HDM2 | HDMX versus HDM2 binding selectivity (listed as SEQ ID NO:32): selectivity to HDMX |
| SAH-p53-4 S15A: Formula (I) stapled peptide: [Xaa]w LAQETF, [Xaa]x DLWKLL, [Xaa]y EN (LAQETF[R8]DLWKLL[S5]EN-NH2; staple 7-14; not fully specified) | selectivity to HDM2 | – |
| SAH-p53-4 S15E: Formula (I) stapled peptide: [Xaa]w LEQETF, [Xaa]x DLWKLL, [Xaa]y EN (LEQETF[R8]DLWKLL[S5]EN-NH2; staple 7-14; not fully specified) | selectivity to HDM2 | – |
| SAH-p53-4 S15R: Formula (I) stapled peptide: [Xaa]w LRQETF, [Xaa]x DLWKLL, [Xaa]y EN (LRQETF[R8]DLWKLL[S5]EN-NH2; staple 7-14; not fully specified) | selectivity to HDM2 | – |
| SAH-p53-4 T18A: Formula (I) stapled peptide: [Xaa]w LSQEAF, [Xaa]x DLWKLL, [Xaa]y EN (LSQEAF[R8]DLWKLL[S5]EN-NH2; staple 7-14; not fully specified) | dual selectivity to HDMX and HDM2 | – |

The next lines start with results.

| HDMX versus HDM2 binding selectivity | Substance | other results |
| --- | --- | --- |
| dual selectivity to HDMX and HDM2 | SAH-p53-4 D21E: Formula (I) stapled peptide: [Xaa]w LSQETF, [Xaa]x ELWKLL, [Xaa]y EN (LSQETF[R8]ELWKLL[S5]EN-NH2; staple 7-14; not fully specified (N-terminus)) | – |
| dual selectivity to HDMX and HDM2 | SAH-p53-4 D21R: Formula (I) stapled peptide: [Xaa]w LSQETF, [Xaa]x RLWKLL, [Xaa]y EN (LSQETF[R8]RLWKLL[S5]EN-NH2; staple 7-14; not fully specified (N-terminus)) | – |
| dual selectivity to HDMX and HDM2 | SAH-p53-4 E17R: Formula (I) stapled peptide: [Xaa]w LSQRTF, [Xaa]x DLWKLL, [Xaa]y EN (LSQRTF[R8]DLWKLL[S5]EN-NH2; staple 7-14; not fully specified (N-terminus)) | – |
| dual selectivity to HDMX and HDM2 | SAH-p53-4 E28R: Formula (I) stapled peptide: [Xaa]w LSQETF, [Xaa]x DLWKLL, [Xaa]y RN (LSQETF[R8]DLWKLL[S5]RN-NH2; staple 7-14; not fully specified (N-terminus)) | – |
| dual selectivity to HDMX and HDM2 | SAH-p53-4 K24R: Formula (I) stapled peptide: [Xaa]w LSQETF, [Xaa]x DLWRLL, [Xaa]y EN (LSQETF[R8]DLWRLL[S5]EN-NH2; staple 7-14; not fully specified (N-terminus)) | – |
| dual selectivity to HDMX and HDM2 | SAH-p53-4 L25E: Formula (I) stapled peptide: [Xaa]w LSQETF, [Xaa]x DLWKEL, [Xaa]y EN (LSQETF[R8]DLWKEL[S5]EN-NH2; staple 7-14; not fully specified) | – |
| dual selectivity to HDMX and HDM2 | SAH-p53-4 L25R: Formula (I) stapled peptide: [Xaa]w LSQETF, [Xaa]x DLWKRL, [Xaa]y EN (LSQETF[R8]DLWKRL[S5]EN-NH2; staple 7-14; not fully specified) | – |
| dual selectivity to HDMX and HDM2 | SAH-p53-4 N29E: Formula (I) stapled peptide: [Xaa]w LSQETF, [Xaa]x DLWKLL, [Xaa]y EE (LSQETF[R8]DLWKLL[S5]EE-NH2; staple 7-14; not fully specified) | – |
| HDMX selectivity over HDM2 | SAH-p53-4 N29R: Formula (I) stapled peptide: [Xaa]w LSQETF, [Xaa]x DLWKLL, [Xaa]y ER (LSQETF[R8]DLWKLL[S5]ER-NH2; staple 7-14; not fully specified (N-terminus)) | HDMX versus HDM2 binding selectivity (listed as SEQ ID NO:29): selectivity to HDMX |
| dual selectivity to HDMX and HDM2 | SAH-p53-4 Q16R: Formula (I) stapled peptide: [Xaa]w LSRETF, [Xaa]x DLWKLL, [Xaa]y EN (LSRETF[R8]DLWKLL[S5]EN-NH2; staple 7-14; not fully specified) | – |

From US20230192789A1, “STRUCTURALLY-STABILIZED AND HDMX-SELECTIVE P53 PEPTIDES AND USES THEREOF” (Dana-Farber Cancer Institute, Inc., priority 2020, published 2023)
